These results are taken from paper PMC6908506, “Development of Foot-and-Mouth Disease Virus-Neutralizing Monoclonal Antibodies Derived From Plasmablasts of Infected Cattle and Their Germline Gene Usage” (Frontiers in Immunology, 2019).

Where a chain is given by its changes, count along the chain named.

For assay [1], the target named is T1, FMDV O/Mya/98 146S antigen (Foot-and-mouth disease virus serotype …, UniProt G8JKC2, strain).
T1 construct: also called purified virus antigen; copies: + + +
Put plainly: immunostaining of cells or tissue. The settings on record: one partner purified.

Assay [2] has as its target T1, FMDV O/Mya/98 146S antigen. As to the kind of experiment: ELISA. The settings on record: both partners purified. Background: An ELISA detects its analyte on a solid surface through an enzyme-linked reagent.

B1: F45 (antibody, V domains shown)
VH: QVQLRESGPSLVKPSQILSLTCTVSGFSLSSNGAVWVRQAPGKTLEWIGGISVDGSVRYNPALNSRLSITKDNSKSQVSLSMTSATPEDTATYFCVRCFSGYSPNSVCSTADYVDAWGQRLLVTVSS
VL: QAVVNQPSSVSGSLGQRVFITCSGSSSNVGNGYVIWYQLIPGSGPTTLIYGDASRPSGVPDRFSGSRSGNTATLTIISLQAEDEEDYFCASAEDSSTNAVFGSGTTLTVL
Consider B1, for which, in assay [1], the binding result is on record as “binds”.

B2: E9 (antibody, V domains shown)
VH: QVQLRESGPSLVKPSQTLSLTCTVSGFSLSNYAVSWVRQAPGKALECLGSISSDGNTGYNPALKSRLSITKDNSKSQVSLSVSSATPEDTATYYCTKCHYPGGCCGYWNDDHVDAWGQGLLVTVSS
VL: QAVLTQPSSVSGSLGQRVTITCSGSSSNIGMYDVGWYQQVPGSGLRTIIYGSSSRPSGVPDRFSGSKSGNTATLTIMSLQAEDEADYFCTTADYSSSTVVFGSGTTLTVL
As to B2, the binding result in assay [2] is recorded as “binds”.

B3: B59 (antibody, V domains shown)
VH: QVQLRESGPSLVKPSQTLSLTCTVSGFSLSDYAVGWVRQAPGKALEWVGGISSGGTTCSKPALKSRLSITRDSSKSQVSLFVTSMTPEDTATYYCAKYFRHDYDVGCSYIMEAVDAWGQGLLVTVSS
VL: QAVLTQPSSVSGSLGQRVSITCSGSSSNVGRGNYVNWFQQIPGSAPRTLIYGATSRASGVPNRFSGSRSGNTATLTISSLQAEDEADYFCAVWDDNIRNAVFGSGTTLILL
For B3, the binding result in assay [2] is given as “binds”.

B4: E40 (antibody)
VH: QVQLRESGPSLVKPSQTLSLTCTASGFSLSDKAVGWVRQAPGKALEWLGGIDTGGNKDYNPGLKSRLSITKDNSKSQMSLSMSSVTTEDSATYYCTTVHQKTNTAKTCRDGHVDVSSCYGSSGCPRSGCCACRRWGGTACSICSSRIVTYTYEFHVDVWGQGLLVTVSS
VL: QAVLTQPSSVSGSLGQRVSITCSGSSSNVGNGYVSWYQLIPGSAPRTLIYGDTSRASGVPDRFSGSRSGNTATLTISSLQAEDEADYFCASPEDSSTNALFGSGTTLTVL
On to B4, for which, in assay [1], the binding result is “binds”.

B5: E43 (antibody)
VH: QVQLRESGPSLVKPSQTLSLTCTASGFSLRDKAVGWVRHTPGKALEWIGSIDSSGNTGYNPGLKSRLSITKDNSKSQVSLSVSAVLSEDSATYYCTVVHQETRQEEGCPDGYLYDSRCGPGGGCSGRLCTRTPSARANDFCCTGRRIRTSTYQHHIDAWGQGLLVTVSS
VL: B4 VL with I40T, S54T, F63V, S68F, P92A, S95G, S96N, T97S, L100V
For B5, the binding result in assay [1] was “binds”.

B6: B64 (antibody, V domains shown)
VH: QVQLRESGPSLVKPSQTLSLTCTVSGFSLSNYDVAWVRQPPGKALECLGGVSISGRTDYNPALKSRLSITKDNSKNQVSLSLSSVTTEDTATYYCAKFFGDYGYDYYGCGYGAGDHYVDAWGQGLLVAVSS
VL: B4 VL with P92A, D94G, T97S, L100G, T108I
As to B6, in assay [2], the binding result was “binds”.

B7: F4 (antibody, V domains shown)
VH: QVQLRESGPSLVKPSQTLSLTCTVSGFSLSSSGVVWVRQAPGKALEWVGSLSSGGLTSRNPALKSRISITKDNSKSQVSLSMSSVTPEDTATYYCAKCGGFYGSTCNGYGSSYDFWGRGLLVTVSS
VL: B4 VL with P92A, T97S, L100V
With B7, in assay [1], the binding result is given as “binds”.

B8: F115 (antibody)
VH: QVQLRESGPSLVKPSQTLSLTCTASGFSLSDKTLGWVRQAPGKALEWLGSMDSGGNTGYNPDLKSRLSITKDNSRSQVSLSVSSVTTEDSATYYCTTTHQISRKEQRCPDGCRVNGWWGDSGCDDDTYCRYNYWGNCIRCTYVYTYEFHVDAWGQGLLVTVSS
VL: B4 VL with G30E, A44T, R46K, D61A, P92A, S95T, T97S, L100V
For B8, in assay [1], the binding result is given as “binds”.

B9: E16 (antibody)
VH: QVQLRESGPSLVKPSQTLSLTCTVSGFSLSDKAVGWVRQAPGKALEWLGSIDGGEKTTYNPGLKSRLSITKDNSKNQVSLSVSSVSTEDSATYYCSIVYQKRERKCPDGYRPGTFCGSGINARDCRYDGCYASEHWQCCDTYTPGTSAYNFHIDAWGQGLLVTVSS
VL: B4 VL with N31K, L39R, G51D, A81V, P92A, D94G, T97S, L100V
Regarding B9, the binding result in assay [2] is on record as “binds”.

B10: F104 (antibody, V domains shown)
VH: QVQLRESGPSLVKPSQTLSLTCTVSGFSLSSYDVGWVRQAPGKGLECLGGIGNRGNTKYNPALKSRLSITKDNSKSQVSLSLSSVTSEDTATYYCTKSYGGNDVYDCYDSEYWGQGLLVTVSS
VL: QAVLTQPSSVSGSLGQRVSITCSGSSNNIGRYSVGWYQQVPGSGLRTIIYISSSRPSGVPDRFSGSKSGNTATLTISSLQAEDEADYFCATNDYSSDTTIFGSGTTLTVL
B10: the binding result in assay [1] is recorded as “binds”.

B11: F64 (antibody, V domains shown)
VH: QVQLRESGPSLVKPSQTLSLTCTVSGLSLNSIGVIWVRQAPGKALEWVGGINSGGSTYYKSALKSRLSITKDNSNSQVSLSLNSVTPEDTATYYCATYVGDFWGQGLLVTVSS
VL: QAVLTQPSSVSGSLGQRISITCSGSSSNIGRYNVGWYQQVPGSGLRTIIYGSSSRPSGVPDRFSGSKSGNTATLTISSLQAEDEADYFCAADDNSNSTAVFGSGTTLNVL
B11: the binding result in assay [1] is listed as “binds”.

B12: E53 (antibody, V domains shown)
VH: QVQLRESGPSLVKPSQTLSLTCTVSGFSLSSYAVDWVRQAPGKALECLGGISRDGDISYNPALKSRLSITKDDSKSQVSLSLSSVTSEDTATYYCAKATDGGYFRSTYGCQGFTVNTYVDIWGQGFLVTVSS
VL: QAVLTQPSSLSGSLGQRVSITCSGSSGNIGTRDVSWYQQIPGSGLRTIIYGNSSRPSGVPDRFSGSRSGNTATLRIRSLQPEDEADYFCGSADYSSEIAVFGSGTTLTVL
In the case of B12, in assay [2], the binding result is on record as “binds”.

B13: E11 (antibody, V domains shown)
VH: QVQLRESGPSLVKPSQTLSLTCTVSGFSLNSYAVTWVRQAPGKALECLGSIGSRGGTGYNQALKSRLSITKNNSKSQVSLSVRSVTPEDTATYYCVKESGSGYWDDACWGFGVGDDYVDTWGHGLLVTVST
VL: QAVLTQPSSVSGSLGQRVSITCSGSSSNVGRGNYVSWFQQLPGAAPRTLIYAATSRASGVPDRFSGSRSGNTATLTISSLQAEEEAYYFCAVYDTSSKAAVFGSGTTLTVL
As for B13, the binding result in assay [2] is “binds”.

B14: E12 (antibody, V domains shown)
VH: QVQLRESGPSLVKPSQTLPLTCTVSGFSLSDYGVGWVRQAPGKALEWLGVIYYAGRTVYNPALKSRLSITKDNSKSQISLSLSSVITEDTATYYCTRCYEDYYYDCIDWGHRYDLWGQGLLVTVSS
VL: QAVLTQPSSVSGSLGQRVSITCSGSSSNVGTGNYVTWFQQIPGSAPRILIYGASSRVSGVPDRFSGSRSGNTATLTISSLQAEDEADYFCTSYESDYTAVFGSGTTLTVL
Take B14: the binding result in assay [2] was “binds”.

B15: F39 (antibody, V domains shown)
VH: QVQLRESGLSLVKPSQTLSLTCTVSGFSLSSYGVGWVRQAPGKALECLGGITSGGSADYNPALKSRLSITKDNSKSQVSLSLSSVTTEDTATYYCGKTSRFYGLVCNVDFYDDSEYVDAWGQGLLVTVSS
VL: QAVLTQPSSVSGSLGQRVSITCFGSSNDVGYGDYVSWFQQIPGSAPRMIIYGATRRPSGVPDRFSGSRSGNTATLTINSLQAEDEADYFCASPVGLGSGYPIFGSGTALTVL
In the case of B15, in assay [1], the binding result is given as “binds”.

B16: F36 (antibody, V domains shown)
VH: QVQLRESGPSLVKPSQTLSLTCTVSGFSLSSYAVNWVRQAPGKALECLGSIGSGGSTGYNPALKSRLSITKDNSKSQVSLSVSSVTPEDTATYYCAKTTYSGDSRTFYGCYGSGSAYETYVDTWGQGLLVTVSS
VL: QAVLTQPSSVSGSLGQRVSITCSGSSNNIGNNGVVWYQQVPGSGLRTIIYGSTGRPSGVPDRFSGSKSGNTATLTISSLQAEDEADYFCGTADDSSSIAVFGSGTTLTVL
Regarding B16, in assay [1], the binding result is listed as “binds”.

B17: E10 (antibody, V domains shown)
VH: QVQLRESGPSLVKPSQTLSLTCTVSGFSLSSNGVVWVRQAPGKALEWVGCSRGEGSTFYNQALRSRLSITKDNSKSQVSLSVSSVTPEDTATYYCTKVYNGGCGRRGYDAAAYVDAWGQGLLVTVSS
VL: B16 VL with S25R, N31G, V35G, T53S, G54S, G90A, D94Y, S97G, I98T
B17: the binding result in assay [2] is recorded as “binds”.

B18: 60 (antibody, V domains shown)
VH: QVQLRESGPSLVKPSQTLSLTCTISGFSLSDATVGWVRQASGKALEWLGAIWPSGSTGYNLGLKSRLTITKDNSKTQVFLSLNSLTPEDTATYHCTGGGIGFIWGQGLLVTVSP
VL: QAVLTQPSSVSGSLGQRVSITCSGSPNNVGLGNFVSWFQQIPGSAPRSLIYGATSRVSGVPDRFSGSRSMNTATLTISSLQAEDEADYFCASYERNNTGVFGSGTTLTVL
For the molecule B18, in assay [2], the binding result is on record as “binds”.

B19: F56 (antibody, V domains shown)
VH: QVQLRESGPSLVKPSQTLSLTCTFSGFSLSSNGVLWVRQAPGKALEWLGGMCRSGSTNFNPALKSRLSITKNNSKSQVSLSVSSVTPEDTATYYCTTGFDLDCDWGYEDSTWGQGLLVTVSS
VL: QAVLTQPSSVSGSLGQRVSITCSGSSSNIGNDDVGWYQQIPGSGLRTIIYGNNSRPSGVPDRFSGSKSGNTATLTISSLQAEDEADYFCASADDNTSTAVFGSGTTLTVL
As for B19, in assay [1], the binding result is reported as “binds”.
